US20260098089A1 (KYMAB, published 2026)

Assays:
[1] = biological target: T1, Human CD7 on cells (CEM and other T-ALL cells, peripheral NK and T cells) (human, UniProt P09564 26-238); assay: cell-based or functional assay
T1 sequence: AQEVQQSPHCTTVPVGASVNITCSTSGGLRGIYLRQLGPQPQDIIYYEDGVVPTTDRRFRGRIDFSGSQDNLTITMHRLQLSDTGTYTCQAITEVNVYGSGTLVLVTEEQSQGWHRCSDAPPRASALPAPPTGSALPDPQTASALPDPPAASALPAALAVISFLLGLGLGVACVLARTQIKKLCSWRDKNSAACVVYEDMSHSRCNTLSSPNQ

[2] = biological target: T2, Human CD7 protein (soluble) (human, UniProt P09564 26-180); assay: SPR, captured mAb, global fit 1:1 model
T2 construct: also called hCD7; human antigen
T2 sequence: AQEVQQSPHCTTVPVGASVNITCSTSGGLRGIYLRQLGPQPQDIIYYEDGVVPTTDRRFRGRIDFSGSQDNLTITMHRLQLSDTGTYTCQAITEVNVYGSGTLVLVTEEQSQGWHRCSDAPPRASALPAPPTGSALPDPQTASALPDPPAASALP

[3] = biological target: T3, Cynomolgus monkey (Macaca fascicularis) CD7 protein (soluble) (cynomolgus monkey (Macaca fascicularis)); assay: SPR, captured mAb, global fit 1:1 model
T3 construct: also called Cynomolgus CD7; cynomolgus antigen
T3 chain: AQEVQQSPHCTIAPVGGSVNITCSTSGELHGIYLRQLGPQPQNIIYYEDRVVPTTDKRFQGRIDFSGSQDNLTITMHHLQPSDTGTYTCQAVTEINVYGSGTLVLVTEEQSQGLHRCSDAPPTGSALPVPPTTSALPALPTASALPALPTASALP

[4] = biological target: T1, Human CD7 on cells (CEM and other T-ALL …); assay: cell-based or functional assay; remark: listed apart in the source
[5] = biological target: T2, Human CD7 protein (soluble); assay: Affinity to soluble CD7 (biophysical summary; SPR)
[6] = biological target: T3, Cynomolgus monkey (Macaca fascicularis) …; assay: Affinity to soluble CD7 (biophysical summary; SPR)
[7] = biological target: T3, Cynomolgus monkey (Macaca fascicularis) …; assay: SPR, mAb captured, single concentration of cynomolgus CD7 protein as analyte

B1: 1730C02 E345R (antibody, human IgG1, V domains shown)
VH: EVQLVESGGGLVQLGGSLRLSCAASGLTFNNYAMSWVRQAPGKGLEWVSTISGSGGSTYYADSAKGRFTISRDNSKNTLYLQMNSLRAEDTAVYYCAKGGLLYFGEFHFDYWGQGTLVTVSS
VL: DIQMTQSPSSLSASVGDRVTIICRASQGISNYLAWFQQKPGKAPKSLIYAASSLQSGVPSKFSGSGSGTDFTLTISSLQPEDFATYYCQHYNSYPLTFGGGTKVEIK
[1]
  EC50, CDC assay on CEM cells: 0.00037 nM
  Maximum killing, CDC assay on CEM cells: 93.2%

B2: 1741G09 E345R (antibody, V domains shown)
VH: EVQLVESGGGLVKPGGSLRLSCAASGFSFSVAWMSWVRQAPGKGLEWVGRIKRKTDGGTTDYAAPVKGRFIISRDDSIKALYLQMNSLKTEDTAVYYCTTDPLLRYSDWLSHSLMGDVWGQGTTVTVSS
VL: DIQMTQSPSSLSASVGDRVAITCRTSQNINNYLNWYQQKPGKAPKPLIYAASSLQSGVPSRFSGSGSGTDFTLTISTLHPEDFATYYCQQTYSIPLTFGGGTKVEIK
[1]
  EC50, CDC assay on CEM cells: 0.12 nM
  Maximum killing, CDC assay on CEM cells: 99.5%

B3: 1741G09 (antibody, V domains shown)
VH: EVQLVESGGGLVKPGGSLRLSCAASGFSFSVAWMSWVRQAPGKGLEWVGRIKRKTDGGTTDYAAPVKGRFIISRDDSIKALYLQMNSLKTEDTAVYYCTTDPLLRYSDWLSHSLMGDVWGQGTTVTVSS
VL: DIQMTQSPSSLSASVGDRVAITCRTSQNINNYLNWYQQKPGKAPKPLIYAASSLQSGVPSRFSGSGSGTDFTLTISTLHPEDFATYYCQQTYSIPLTFGGGTKVEIK
notes: also called 1741G9
[2]
  Kd: 4.74 nM
  koff: 0.00192 s⁻¹
  kon: 416000 M⁻¹ s⁻¹
[3]
  Kd: 0.145 nM
  kon: 424000 M⁻¹ s⁻¹

B4: 1741G09 HuIgG1 E430G C-term Lysine clipped, Phe variant of light chain (antibody, V domains shown)
VH: EVQLVESGGGLVKPGGSLRLSCAASGFSFSVAWMSWVRQAPGKGLEWVGRIKRKTDGGTTDYAAPVKGRFIISRDDSIKALYLQMNSLKTEDTAVYYCTTDPLLRYSDWLSHSLMGDVWGQGTTVTVSS
VL: DIQMTQSPSSLSASVGDRVAITCRTSQNINNYLNWYQQKPGKAPKPLIYAASSLQSGVPSRFSGSGSGTDFTLTISTLHPEDFATYYCQQTYSIPLTFGGGTKVEIKR
notes: also called 1741G09 E430G; G09 E430G
[4]
  CDC EC50; PDATLLAd2R, PDATALL12, PDTALL11 (intermediate to low CD7 expression): < 0.4 nM
  CDC EC50; PDTALL13, PDTALL18 (much low CD7 expression): < 0.6 nM
  CDC EC50; PDTALL46 and PDTALLAd2R: ~0.35 nM
  CDC assay on isolated peripheral NK cells, EC50: ~0.3 nM
[5]
  Kd: 4.75 nM
[6]
  Kd: 0.15 nM

B5: 1734F05 E345R (antibody, V domains shown)
VH: EVQLVESGGGLVQPGGSLRLSCAASGFTFSRYAMSWVRQAPGKGLEWVSSISASGATTFYADPVKGRFTISRDNSKKTLYLQMNSLRAEDTAVYYCAKDQDFDILTGYLNWFDPWGQGTLVTVSS
VL: EIVLTQSPATLSLSPGERVILSCRVSQSVSSYLAWYQQKPGQAPRLLIYDTSNRATGIPARFSGSGSGTDFTLTISSLEPEDFAVYYCQQRRNWPLTFGGGTKVEIK
[1]
  EC50, CDC assay on CEM cells: 1.16 nM
  Maximum killing, CDC assay on CEM cells: 100%

B6: 1734F05 (antibody, V domains shown)
VH: EVQLVESGGGLVQPGGSLRLSCAASGFTFSRYAMSWVRQAPGKGLEWVSSISASGATTFYADPVKGRFTISRDNSKKTLYLQMNSLRAEDTAVYYCAKDQDFDILTGYLNWFDPWGQGTLVTVSS
VL: EIVLTQSPATLSLSPGERVILSCRVSQSVSSYLAWYQQKPGQAPRLLIYDTSNRATGIPARFSGSGSGTDFTLTISSLEPEDFAVYYCQQRRNWPLTFGGGTKVEIK
[2]
  Kd: 0.98 nM
  koff: 0.000356 s⁻¹
  kon: 369000 M⁻¹ s⁻¹
[3]
  Kd: 3.9 nM
  koff: 0.000642 s⁻¹
  kon: 165000 M⁻¹ s⁻¹

B7: 1741E04 E345R (antibody, human IgG1, V domains shown)
VH: EVQLVESGGGLVKPGGSPRLSCAAYGVTFSNAWMSWVRQAPGKGLEWVGRIKSKTDGGTTDYAAPVKGRFTISRDDSKNTLYLQMNSLKTEDTAVYYCTIEAVAGHFDYWGQGTLVTVSS
VL: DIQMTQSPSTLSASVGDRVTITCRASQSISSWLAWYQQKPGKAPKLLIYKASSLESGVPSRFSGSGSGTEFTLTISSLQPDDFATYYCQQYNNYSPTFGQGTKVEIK
[1]
  EC50, CDC assay on CEM cells: 0.12 nM
  Maximum killing, CDC assay on CEM cells: 99.8%
[7]
  binding result: no binding
